Test results published in patent US20260132208A1 (DOMAIN THERAPEUTICS, published 2026).
Values joined by “and” are separate entries in the source; they are usually repeats but may differ in a detail not shown here. Equal values may be shown once. Read-outs that look alike come from different tables or passages of the source. Values belong to the binder of their own block, whether it stands above or below them.

Assays:
human CCR8 [1] = target: T1, human CCR8 (human, UniProt P51685 1-355); experiment: cell-based or functional assay
pm1 = target: T2, pm1 (sulfated tyrosine(s) among Y15, Y16, Y17; which ones is not told (the underlining of Table 1 is lost in the text)); experiment: ELISA on coated peptide [cont.]
T2 construct: also called sulfated CCR8 N-terminal peptide pm1
Method in brief: (§1)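 Wells were coated with CCR8-related peptides at 500 ng/ml in carbonate/bicarbonate buffer. Anti-CCR8 mAbs were tested from 1 μg/mL in 1/10 dilutions and bound for 90 min at room temperature. Detection used TMB for 15 min with an optical density read-out.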

pm2 = target: T3, pm2 (sulfated tyrosine(s) among Y15, Y16, Y17; which ones is not told (the underlining of Table 1 is lost in the text)); experiment: ELISA on coated peptide [cont.]
T3 construct: also called sulfated CCR8 N-terminal peptide pm2
Method in brief: as §1

pm3 = target: T4, pm3 (Y17 sulfated; Y15 and Y16 not sulfated); experiment: ELISA on coated peptide [cont.]
T4 construct: also called sulfated CCR8 N-terminal peptide pm3
Method in brief: as §1

pm4 = target: T5, pm4 (sulfated tyrosine(s) among Y15, Y16, Y17; which ones is not told (the underlining of Table 1 is lost in the text)); experiment: ELISA on coated peptide [cont.]
T5 construct: also called sulfated CCR8 N-terminal peptide pm4
Method in brief: as §1

pm5 = target: T6, pm5 (Y15 and Y17 sulfated; Y16 not sulfated); experiment: ELISA on coated peptide [cont.]
T6 construct: also called sulfated CCR8 N-terminal peptide pm5
Method in brief: as §1

pm6 = target: T7, pm6 (Y16 and Y17 sulfated; Y15 not sulfated); experiment: ELISA on coated peptide [cont.]
T7 construct: also called sulfated CCR8 N-terminal peptide pm6
Method in brief: as §1

pm8 = target: T8, pm8 (Y15, Y16 and Y17 sulfated); experiment: ELISA on coated peptide [cont.]
T8 construct: also called sulfated CCR8 N-terminal peptide pm8
Method in brief: as §1

[2] = target: T9, human CCR8 with a SNAP-tag at the N-terminus (human, UniProt P51685 1-355, SNAP-tag labelled covalently with Lumi4-Terbium); experiment: HTRF Tag-lite, inhibition of hCCL1-AF647 binding to SNAP-hCCR8 on HEK-293 cells
T9 construct: also called hCCR8 SNAP-tag; CCR8 SNAP-tag
Method: (§2) The inhibition of CCL1 binding to hCCR8 was evaluated with the Tag-Lite® technology from Cisbio (Revvity). Human CCR8 is engineered with a SNAP-tag at the N-terminus of the GPCR. hCCR8 SNAP-tag is transiently transfected on HEK-293 cell line using FuGene® (Promega, Madison, WI, USA). 48 hours after transfection, cells are labeled with the substrate Lumi4-Terbium® (Cisbio, Codolet, France) which covalently reacts with the SNAP-tag, for 1 h at 37° C. Thawed or freshly labeled cells are plated in a 384 low volume white plate (GREINER Bio-One, Courtaboeuf, France) (10000 cells/well/10 μl). […] The Kd was previously obtained in a saturation binding assay on the same cells. […] The plate is next incubated at 21° C. for 2 h. Detection of HTRF signal is performed on the multiplate reader EnVision (PerkinElmer, Waltham, MA, USA). The HTRF (665/620) ratio is calculated by EnVision software, the data exported are considered as the total binding. The specific binding is calculated then by subtracting the non-specific signal from the total binding. The Ki and IC₅₀ are calculated using the “One site-Fit Ki” and “One site-FitlogIC50” from GraphPad Prism 9 (Graphpad Software, San Diego, CA, USA), respectively.

[3] = target: T9, human CCR8 with a SNAP-tag at the …; experiment: as above; remark: listed apart in the source
Method: as §2

human CCR8 [4] = target: T1, human CCR8; experiment: cell-based or functional assay; remark: listed apart in the source
human CCR8 [5] = target: T1, human CCR8; experiment: cell-based or functional assay; remark: listed apart in the source
human CCR8 [6] = target: T1, human CCR8; experiment: flow cytometry, hCCR8-transfected CHO-K1 cells
Method in brief: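 Antibody incubation ran 30 min at 4° C, followed by fluorescent anti-mouse or anti-human IgG secondary for 30 min at 4° C. Isotype-matched mAbs served as nonspecific-binding controls.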

human CCR8 [7] = target: T1, human CCR8; experiment: flow cytometry, inhibition of hCCL1-AF647 (10 nM) binding to hCCR8-CHO cells
Method in brief: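 hCCR8-transfected CHO cells preincubated 30 min at 4 °C with anti-CCR8 mAb (8 concentrations, top 10 μg/mL, 1/3 dilutions), washed, then exposed to labelled CCL1. Bound CCL1 quantified by flow cytometry; IC₅₀ of binding blockade from sigmoidal variable-slope fit.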

human CCR8 [8] = target: T1, human CCR8; experiment: flow cytometry competition on hCCR8 transfected CHO cells; blocked ligand hCCL1-AF647 [cont.]
Method: The hCCR8 transfected CHO cell line was dispatched at a density of 1.105 per well in a 96-well plate. Cells were incubated for 30 min at 4° C. with or without anti-CCR8 mAb tested at 10 μg/mL then diluted at 1/3. Unbound antibodies were washed away with PBS (Gibco, Villebon-sur-yvette, France) supplemented by 2% Fetal Bovine Serum (Invitrogen by Thermofisher Scientific, Illkirch-Graffenstaden, France) and 2 mM EDTA. […] After washing unbound ligands, CCL1 bound detection is quantified on a MacsQuant16 (Miltenyi, Gladbach, Germany) (R1 channel, 5 000 events per acquisition).
For IC₅₀ determination, a concentration response curve is performed using 8 concentrations of mAb. Curves are fitted and IC₅₀ of CCL1 binding blocking activity is calculated using the sigmoidal dose-response (variable slope) model on GraphPad Prism 9 (GraphPad Software, San Diego, CA, USA).

human CCR8 [9] = target: T1, human CCR8; experiment: cell-based or functional assay; remark: listed apart in the source
human CCR8 [10] = target: T1, human CCR8; experiment: cell-based or functional assay; remark: listed apart in the source
human CCR8 [11] = target: T1, human CCR8; experiment: cell-based or functional assay; remark: listed apart in the source
pwt1 = target: T10, pwt1 (none (unmodified peptide)); experiment: ELISA on coated peptide [cont.]
T10 construct: also called unmodified CCR8 N-terminal peptide
Method in brief: as §1

human CCR8 [12] = target: T1, human CCR8; experiment: flow cytometry, HUT78 cells (endogenous CCR8)
Method: In human activated T cells model, prior to mAb incubation, cells were first incubated with 200 nM of hCCL1 (R&D Systems, Minneapolis, MN, USA) or buffer PBS (Invitrogen by Thermofisher Scientific, Illkirch-Graffenstaden, France) supplemented by 2% Fetal Bovine Serum (Invitrogen by Thermofisher Scientific, Illkirch-Graffenstaden, France) and 2 mM EDTA (Invitrogen by Thermofisher Scientific, Illkirch-Graffenstaden, France) during 1 hour at 4° C. To determine EC50 value, 8 concentrations of anti-CCR8 mAb were tested. Unbound antibodies were washed away with PBS (Invitrogen by Thermofisher Scientific, Illkirch-Graffenstaden, France) supplemented by 2% Fetal Bovine Serum (Invitrogen by Thermofisher Scientific, Illkirch-Graffenstaden, France) and 2 mM EDTA (Invitrogen by Thermofisher Scientific, Illkirch-Graffenstaden, France). Subsequently, cells are centrifuged (5 min at 400 g) and bound antibody is detected with F(ab′)2-Goat anti-Mouse IgG (H+L) Cross-Adsorbed Secondary Antibody, Alexa Fluor 488 (dilution 1/500) (Invitrogen by Thermofisher Scientific, Illkirch-Graffenstaden, France) or with F(ab′)₂-Goat anti-Human IgG Fc Secondary Antibody, PE (Invitrogen by Thermofisher Scientific, Illkirch-Graffenstaden, France) (dilution 1/1000) at 4° C. for 30 min. Detection reagent is washed away and cells are centrifuged (5 min at 400 g) and resuspended in 30 μL PBS. Bound detection antibody is quantified on a MacsQuant16 (Miltenyi, Gladbach, Germany) (B1 or B2 channel, 5000 events per acquisition). During the experiment, the respective isotype mAb controls (mouse IgG1, mouse IgG2a, mouse IgG2b, mouse IgG3 or human IgG1) (Biolegend, Amsterdam, The Netherlands) are included to exclude any unspecific binding events. EC50 values were determined via nonlinear fit “log (agonist) vs.response—Variable slope (four parameters)” function of Graphpad prism. EC50 values were not constantly determined in the same experiments.
Anti-CCR8 mAb cellular reactivity was also evaluated on native human CCR8 from HUT78 cell line by flow cytometry. In Table 4.3, Mean Fluorescence Intensity (Fold change to isotype control), the percentage of labelled cells and EC50 in nM of some anti-CCR8 antibodies are presented.

T7 sequence (peptide, as listed by the source): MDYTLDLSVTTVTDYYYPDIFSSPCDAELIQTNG
T8 sequence (peptide, as listed by the source): as above
T4 sequence (peptide, as listed by the source): as above
T6 sequence (peptide, as listed by the source): as above
T2 sequence (peptide, as listed by the source): as above
T5 sequence (peptide, as listed by the source): as above
T3 sequence (peptide, as listed by the source): as above
T10 sequence (peptide, as listed by the source): as above

IC50 of CCL1-induced hCCR8 Gi2 signaling (BRET, HEK-293) (human CCR8 [1]): 0.048 µg/mL and 0.318 nM | binding result (pm1): binds | binding result (pm2): binds | binding result (pm3): binds | binding result (pm4): binds | binding result (pm5): binds | binding result (pm6): binds | binding result (pm8): binds | IC50 [2]: 100 to 1000 pM | IC50 [3]: 0.02 µg/mL | Ki [3]: 0.01 µg/mL and 0.06 nM
B1: anti-CCR8 mAb 1-19 (antibody, human IgG1, kappa, V domains shown)
VH: EVQLVESGGGLVQPGRSLRLSCTASGFTFNTYAMNWVRQAPGKGLEWVARIRSKSNNYATYYAASVKGRFTISRDDSKSIAYLQMNSLKTEDTAVYYCVRGREAYYRYDGGYYAMDVWGQGTTVTVSS
VL: DIVMTQAAPSLPVTPGESASISCRSSKSLLHSNGNTYLYWFLQKPGQSPQLLIYRMSNLASGVPDRFSGSGSGTAFTLKISRVEAEDVGVYYCMQHLEYPFTFGSGTKLEIKR
notes: Humanized mAb, human IgG1 / kappa

IC50 of CCL1-induced hCCR8 Gi2 signaling (BRET, HEK-293) (human CCR8 [1]): 0.015 µg/mL and 0.1 nM | residual hCCL1 (100 nM) Gi2 response, protocol #2, mAb 0.08 µg/mL (human CCR8 [4]): 88% | residual hCCL1 (100 nM) Gi2 response, protocol #2, mAb 0.4 µg/mL (human CCR8 [4]): 57% | residual hCCL1 (100 nM) Gi2 response, protocol #2, mAb 10 µg/mL (human CCR8 [4]): 46% | residual hCCL1 (100 nM) Gi2 response, protocol #3, mAb 0.05 µg/mL (human CCR8 [4]): 73% | residual hCCL1 (100 nM) Gi2 response, protocol #3, mAb 0.5 µg/mL (human CCR8 [4]): 36% | residual hCCL1 (100 nM) Gi2 response, protocol #3, mAb 5 µg/mL (human CCR8 [4]): 36% | extrapolated top plateau of hCCL1 curve with 5 µg/mL mAb, protocol #3 (human CCR8 [5]): 533000 % of hCCL1 (100 nM) | binding result (pm3): binds | binding result (pm5): binds | binding result (pm6): binds | binding result (pm8): binds | % positive cells (human CCR8 [6]): 81.8% | MFI fold change to isotype ctrl (human CCR8 [6]): 16.2 fold | IC50 (human CCR8 [7]): ~0.91 µg/mL and 6.09 nM | IC50 (read off the curve) (human CCR8 [8]): ~0.9 µg/mL
B2: anti-CCR8 mAb 1-9 (antibody, V domains shown)
VH: EVQLVESGGGLVQPKGSLKLSCAASGFTFNAYAMNWVRQAPGKGLEWLARIRSKSNNYATYYADSVKDRFTISRDDSQSMFYLQMNNLKSEDTAMYYCVRGREAYYRYDGGYYAMDYWGQGTSVTVSS
VL: EIVMTQAALSAPVTPGESVSMSCRSSKSLLHSNGNTYLYWFLQRPGQSPQLLIYRMSNLASGVPDRFSGSGSGTAFTLRISRVEAEDVGVYYCMQHLEYPFTFGSGTKLEIK
notes: Murine hybridoma mAb

IC50 of CCL1-induced hCCR8 Gi2 signaling (BRET, HEK-293) (human CCR8 [1]): 0.035 µg/mL and 0.232 nM | residual hCCL1 (100 nM) Gi2 response, protocol #2, mAb 0.08 µg/mL (human CCR8 [4]): 74% | residual hCCL1 (100 nM) Gi2 response, protocol #2, mAb 0.4 µg/mL (human CCR8 [4]): 54% | residual hCCL1 (100 nM) Gi2 response, protocol #2, mAb 10 µg/mL (human CCR8 [4]): 40% | residual hCCL1 (100 nM) Gi2 response, protocol #3, mAb 0.05 µg/mL (human CCR8 [4]): 89% | residual hCCL1 (100 nM) Gi2 response, protocol #3, mAb 0.5 µg/mL (human CCR8 [4]): 63% | residual hCCL1 (100 nM) Gi2 response, protocol #3, mAb 5 µg/mL (human CCR8 [4]): 51% | extrapolated top plateau of hCCL1 curve with 5 µg/mL mAb, protocol #3 (human CCR8 [5]): 138000 % of hCCL1 (100 nM) | IC50 of CCL1-induced hCCR8 Gi2 signaling (BRET), pH 6.5 (human CCR8 [9]): 0.025 µg/ml and 0.165 nM | IC50 of CCL1-induced hCCR8 Gi2 signaling (BRET), pH 7.4 (human CCR8 [9]): 0.035 µg/ml and 0.232 nM | ADCC % max lysis, HUT78 targets, NK donor 1 (human CCR8 [10]): 30% | ADCC % max lysis, HUT78 targets, NK donor 2 (human CCR8 [10]): 28% | ADCC EC50, HUT78 targets, NK donor 1 (human CCR8 [10]): 6.43 pM | ADCC EC50, HUT78 targets, NK donor 2 (human CCR8 [10]): 0.42 pM | ADCP % max phagocytosis, HUT78 targets, MDM donor 9 (human CCR8 [11]): 9.65% | binding result (pwt1): binds | binding result (pm1): binds | binding result (pm2): binds | binding result (pm3): binds | binding result (pm4): binds | binding result (pm5): binds | binding result (pm6): binds | binding result (pm8): binds | % of labelled cells (human CCR8 [12]): 32% | IC50 [3]: 0.09 µg/mL and 0.6 nM | Ki [3]: 0.05 µg/mL and 0.3 nM
B3: anti-CCR8 mAb 1-21 (antibody, human IgG1, kappa)
heavy: not shown
light: DIVMTQAAPSLSVTPGESASISCTSSKSLLHSNGNTYLYWFLQKPGQSPQLLIYRMSNLASGVPDRFSGSGSGTAFTLKISRVEAEDVGVYYCMQHREYPFTFGSGTKLEIKRTVAAPSVFIFPPSDEQLKSGTASVVCLLNNFYPREAKVQWKVDNALQSGNSQESVTEQDSKDSTYSLSSTLTLSKADYEKHKVYACEVTHQGLSSPVTKSFNRGEC
notes: Humanized mAb; Fc from human IgG1 allotype G1m17 with the terminal lysine deleted and the SDIE mutations (already in the entry)
